test system: K4 kissing-loop RNA reporter; assay: apparent KD of K4 kissing-loop reporter; higher = weaker reporter binding; details: Eterna round: R107; input ligand: FMN 200 uM
Experimental: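 RNA-MaP round R107: designed RNA switches with theophylline, tryptophan, arginine or FMN aptamers are transcribed on-chip within common flanks. They are titrated with a labelled K4 kissing-loop RNA reporter in RNA-MaP buffer (100 mM Tris pH 7.5, 80 mM KCl, 4 mM MgCl2), without ligand or with the indicated ligand. Median apparent KD per design.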
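Note: bound reporter read as fluorescence of individual clusters on recovered sequencing chips by microscopy, with normalized cluster intensities fitted with a binding model.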

Sequence | apparent KD of K4 kissing-loop reporter [µM]
UGUCAUUGGUCUGAUACCAGAAGAUAUUCUGGAGUGAUGUUCCAAGUACGACAAAGUCGCUUCCCUUGGCAGCAGACCGAUGACU [TheoBS 20 #SwitchBubble 13 #StaticStem] | 0.471
AAAAUAAACCAGUGAUGUUGGUAGCCAGAUACCAGCGACGAAAGUCGCCCUUGGCAGCUGUGGACGUACAAAAUAAGUACGUCCU | 0.248
ACGUAGUUCUAGGAUACCAGCCAAGGACGCCAGGACAAAAGUCCUGGCGCCAGUGAUGUUGGCCCUUGGCAGCCUAGAACUACGA [Omei KL Theo B Exc B v5] | 0.197
AGGCGGCAUGAUUGACUGAAAAGAAAUCAACGAGGACCGGUACGGCCGCCACUCGAACACCAGUGAUGUUGGUAUGGGAUAACCC [Exclusion Tryptophan A GF 19] | 0.178
CGCCGUAAGGCGGUCGCUCCCACUCCGGAAGGAGCGCCCGUAAGGGCAGGUAGGUCGCCGGAGUGAUGUUCCGGUGGAGGGACCG [#2 Exclusion - Arginine A Attempt #8 (Inspired by Omei)] | 0.323
UUUAUUAAGACGGCCGCCACUGAUUCAUAGUGAUGUUAUGAUAUAAUUUUAGUGAUGUGCAUUAGCAGGACCGGGUCAAUUAUUA [#28 K4 Tryptophan B Exclusion] | 0.125
GUGAAGGAGCAGCAGUGAUGUUGCUGAGACUAGGAUAUCAGGAAACUGAGAAGGAGUCAACUCCUUCACCUAGACUGCAACAUAA [KL-SSFMN-A13] | 0.173
AAGCAGUCACGCGAAGCCAUCGAAGAUGGCCGAGGACCGGUACGGCCGCCACUCGGAGUGAUGUUCCGAAGACUGCAAAAUAAAA | 0.37
CGCGCGCGUUGAGAGGCGCGCGCGAAUGAUACCAGUAUAUAAGAAUACCCUUGGCAGCAUAAGAAAGAUAUAGUGAUGUUGUAUA [SSTheophA.E] | 0.0673
GGAUAGGACAAAGGAUAUGGUAGUGAUGUUACCAAACUGGUUAAACAUGUCAGAAAACUGGCAUGACCAGAAGGUUGUCCUAUCG [FmnBX 27 A11+U75] | 0.0864
UAUUAAUAUUUUUCAGUGAUGUUAAUUGAUACCAGCCCGAAACCGGGCCCUUGGCAGCGAGUGAUGUUGGUUGUCAGCAUAAAUA [KL-XTheo-A13] | 0.86
AUCGUUGUCUGAGGAUAUCGUUUAACUGUAGUGAUGUUACAGAAAAUUCAUAUUAUAUUUUCUAUUCGAGAAGGCAGACUACGUA [JR_ExcFMNB_Sub016] | 0.172
UCUGGUAUAUCUGAUACCAGAGUAUAGUAUCAAUUGCAUAUCCGCAGUGAUGUUGCGGAACUCCCUUGGCAGCAGAUCUAUCUCU [Same State Theophylline B GF 26] | 0.0716
GGUCCGGGCUCGGCCGCCACUCCCUCGUACCGCAAGGUAUGAUACCGAGUGAUGUUCGGUUGGAGGAGGACCGGGAGCCCGGACC [#2 Exclusion - Tryptophan B Attempt #9 (HarryS)] | 0.112
UAAUAAUAAUGAUAAUAAUAAAGUGGUGGACGAGGACCGGUACGGCCGCCACUCGAAAAUGCAGUGAUGUUGUAAUACAAAUAAU [Exclusion - Tryptophan A (Freestyle 1)] | 0.11
AAGCAUUGGUCUGAUACCAGUUGAUGACGAAUACGUCAACUGGAGUGAUGUUCCUAAAACAACCCUUGGCAGCAGACCGAUGCAA [MAT - Same State Theophlline B - Mod of Eli - D2] | 0.761
GCGGGCGGCUGAAGGAGCGGGCGGGCCCGAGUGAUGUUCGGGUGGGCUGUGAGGCCCGGAGCCCAGGUAGGUCGCGGUUCCGCCC [#2 Same State - Arginine B Attempt #26 (HarryS)] | 0.157

same assay, conditions: Eterna round: R107; input ligand: arginine 13.2 mM

Sequence | apparent KD of K4 kissing-loop reporter [µM]
UGUCAUUGGUCUGAUACCAGAAGAUAUUCUGGAGUGAUGUUCCAAGUACGACAAAGUCGCUUCCCUUGGCAGCAGACCGAUGACU [TheoBS 20 #SwitchBubble 13 #StaticStem] | 0.195
AAAAUAAACCAGUGAUGUUGGUAGCCAGAUACCAGCGACGAAAGUCGCCCUUGGCAGCUGUGGACGUACAAAAUAAGUACGUCCU | 0.232
ACGUAGUUCUAGGAUACCAGCCAAGGACGCCAGGACAAAAGUCCUGGCGCCAGUGAUGUUGGCCCUUGGCAGCCUAGAACUACGA [Omei KL Theo B Exc B v5] | 0.168
AGGCGGCAUGAUUGACUGAAAAGAAAUCAACGAGGACCGGUACGGCCGCCACUCGAACACCAGUGAUGUUGGUAUGGGAUAACCC [Exclusion Tryptophan A GF 19] | 0.188
CGCCGUAAGGCGGUCGCUCCCACUCCGGAAGGAGCGCCCGUAAGGGCAGGUAGGUCGCCGGAGUGAUGUUCCGGUGGAGGGACCG [#2 Exclusion - Arginine A Attempt #8 (Inspired by Omei)] | 0.274
UUUAUUAAGACGGCCGCCACUGAUUCAUAGUGAUGUUAUGAUAUAAUUUUAGUGAUGUGCAUUAGCAGGACCGGGUCAAUUAUUA [#28 K4 Tryptophan B Exclusion] | 0.108
GUGAAGGAGCAGCAGUGAUGUUGCUGAGACUAGGAUAUCAGGAAACUGAGAAGGAGUCAACUCCUUCACCUAGACUGCAACAUAA [KL-SSFMN-A13] | 0.167
AAGCAGUCACGCGAAGCCAUCGAAGAUGGCCGAGGACCGGUACGGCCGCCACUCGGAGUGAUGUUCCGAAGACUGCAAAAUAAAA | 0.386
CGCGCGCGUUGAGAGGCGCGCGCGAAUGAUACCAGUAUAUAAGAAUACCCUUGGCAGCAUAAGAAAGAUAUAGUGAUGUUGUAUA [SSTheophA.E] | 0.264
GGAUAGGACAAAGGAUAUGGUAGUGAUGUUACCAAACUGGUUAAACAUGUCAGAAAACUGGCAUGACCAGAAGGUUGUCCUAUCG [FmnBX 27 A11+U75] | 0.0628
UAUUAAUAUUUUUCAGUGAUGUUAAUUGAUACCAGCCCGAAACCGGGCCCUUGGCAGCGAGUGAUGUUGGUUGUCAGCAUAAAUA [KL-XTheo-A13] | 0.596
AUCGUUGUCUGAGGAUAUCGUUUAACUGUAGUGAUGUUACAGAAAAUUCAUAUUAUAUUUUCUAUUCGAGAAGGCAGACUACGUA [JR_ExcFMNB_Sub016] | 0.133
UCUGGUAUAUCUGAUACCAGAGUAUAGUAUCAAUUGCAUAUCCGCAGUGAUGUUGCGGAACUCCCUUGGCAGCAGAUCUAUCUCU [Same State Theophylline B GF 26] | 0.0906
GGUCCGGGCUCGGCCGCCACUCCCUCGUACCGCAAGGUAUGAUACCGAGUGAUGUUCGGUUGGAGGAGGACCGGGAGCCCGGACC [#2 Exclusion - Tryptophan B Attempt #9 (HarryS)] | 0.11
UAAUAAUAAUGAUAAUAAUAAAGUGGUGGACGAGGACCGGUACGGCCGCCACUCGAAAAUGCAGUGAUGUUGUAAUACAAAUAAU [Exclusion - Tryptophan A (Freestyle 1)] | 0.203
AAGCAUUGGUCUGAUACCAGUUGAUGACGAAUACGUCAACUGGAGUGAUGUUCCUAAAACAACCCUUGGCAGCAGACCGAUGCAA [MAT - Same State Theophlline B - Mod of Eli - D2] | 0.704
GCGGGCGGCUGAAGGAGCGGGCGGGCCCGAGUGAUGUUCGGGUGGGCUGUGAGGCCCGGAGCCCAGGUAGGUCGCGGUUCCGCCC [#2 Same State - Arginine B Attempt #26 (HarryS)] | 0.107

same assay, conditions: Eterna round: R107; input ligand: none

Sequence | apparent KD of K4 kissing-loop reporter [µM]
UGUCAUUGGUCUGAUACCAGAAGAUAUUCUGGAGUGAUGUUCCAAGUACGACAAAGUCGCUUCCCUUGGCAGCAGACCGAUGACU [TheoBS 20 #SwitchBubble 13 #StaticStem] | 0.617
AAAAUAAACCAGUGAUGUUGGUAGCCAGAUACCAGCGACGAAAGUCGCCCUUGGCAGCUGUGGACGUACAAAAUAAGUACGUCCU | 0.268
ACGUAGUUCUAGGAUACCAGCCAAGGACGCCAGGACAAAAGUCCUGGCGCCAGUGAUGUUGGCCCUUGGCAGCCUAGAACUACGA [Omei KL Theo B Exc B v5] | 0.182
AGGCGGCAUGAUUGACUGAAAAGAAAUCAACGAGGACCGGUACGGCCGCCACUCGAACACCAGUGAUGUUGGUAUGGGAUAACCC [Exclusion Tryptophan A GF 19] | 0.184
CGCCGUAAGGCGGUCGCUCCCACUCCGGAAGGAGCGCCCGUAAGGGCAGGUAGGUCGCCGGAGUGAUGUUCCGGUGGAGGGACCG [#2 Exclusion - Arginine A Attempt #8 (Inspired by Omei)] | 0.339
UUUAUUAAGACGGCCGCCACUGAUUCAUAGUGAUGUUAUGAUAUAAUUUUAGUGAUGUGCAUUAGCAGGACCGGGUCAAUUAUUA [#28 K4 Tryptophan B Exclusion] | 0.12
GUGAAGGAGCAGCAGUGAUGUUGCUGAGACUAGGAUAUCAGGAAACUGAGAAGGAGUCAACUCCUUCACCUAGACUGCAACAUAA [KL-SSFMN-A13] | 0.18
AAGCAGUCACGCGAAGCCAUCGAAGAUGGCCGAGGACCGGUACGGCCGCCACUCGGAGUGAUGUUCCGAAGACUGCAAAAUAAAA | 0.417

— the supplement of paper PMC9170038
